Source: PMC4323031 (Malaria Journal, 2015)

Target: T1, mE-ERH, fusion protein comprising the EGF-like domains of MSP1-19, MSP8 and MSP4 (Plasmodium falciparum, 3D7 assumed from …, UniProt Q7KWJ2)
T1 construct: source: Nicotiana benthamiana leaves (agroinfiltration, ER-retained), purified
Assay: SPR
Conditions: both partners purified

B1: recombinant 2.44IgG1 (chimeric mouse-human IgG1:kappa1 mAb) (antibody, V domains shown)
VH: DVQLQESGPGLVKPSQSLSLTCTVTGYSITSDFAWNWIRQFPGNRLEWMGYMGYTGSTSYNPSLRGRISITRDTSKNQFFLQLNSVTTEDTATYYCARGDYYGSRGYFDVWGAGTTVTVSS
VL: EIVLTQSPALMAASPGEKVTITCSVSSSIRSSNLHWYQQKSDTSPKPWIYGTSNLASGVPVRFSGSGSGTSYSLTISTMEAEDAATYYCQQWSSYPFTFGSGTKLEIK
notes: also called recombinant mAb; recombinant antibody
With B1 the Kd was 10.2 nM, the koff was 0.000926 s⁻¹ and the kon was 90400 M⁻¹ s⁻¹.
